In experiment [1] the target is T1, cell-surface human CD8 (human, UniProt P01732 22-235).
T1 construct: the cell is named under assay; also called cellular human CD8; CD8 on PC3-CD8 cells
Briefly: flow cytometry, primary human CD8+ T cells, Protein L-biotin and streptavidin-APC. As to the method:
(§1) Flow cytometry analysis of cys-diabody binding to cell-surface human CD8 on primary human CD8+ T cells was performed. Cells were stained with respective concentrations of cys-diabody, washed, stained with a secondary Protein L conjugated to Biotin, washed, then stained with a tertiary streptavidin-APC. Analysis was performed with 10,000 events/point in triplicate for each concentration. The results are shown in graph format in FIG. 30B. The graph presents the mean fluorescence intensity (MFI) vs. the log of the concentration (nM). Error bars represent the standard error. The data indicates an EC₅₀ of 0.02 nM.
Background: A flow cytometer gives signals particle by particle.

Experiment [2] concerns the target T1, cell-surface human CD8. Briefly: flow cytometry on primary human CD8+ T cells, Protein L-biotin then streptavidin-APC. As to the method:
as §1

Experiment [3] deals with T1, cell-surface human CD8. Briefly: flow cytometry on HPB-ALL cells, Protein L-biotin then streptavidin-APC. The protocol:
as §1, with “HPB-ALL” for “primary human CD8+ T”, “30A.” for “30B.”, “0.04” for “0.02”

Experiment [4] concerns the target T1, cell-surface human CD8. The experiment is described as above. As to the method: as §1, with “of cys-diabody (+/−C-terminal cysteine conjugation to Desferoxamine) binding to” for “of cys-diabody binding to”, “CD8 on HPB-ALL cells was” for “CD8 on primary human CD8+ T cells was”, “in FIG. 30C. The graph” for “in FIG. 30B. The graph”, “EC₅₀ of 0.04 nM and 0.06 nM.” for “EC₅₀ of 0.02 nM.”
This is another data set of the same source.

The target of experiment [5] is T1, cell-surface human CD8. Nature of the experiment: flow cytometry, HPB-ALL cells, Protein L-biotin and streptavidin-APC. The protocol: as §1, with “HPB-ALL” for “primary human CD8+ T”, “30A.” for “30B.”, “0.04” for “0.02”

T1 sequence (P01732 22-235 limits assumed): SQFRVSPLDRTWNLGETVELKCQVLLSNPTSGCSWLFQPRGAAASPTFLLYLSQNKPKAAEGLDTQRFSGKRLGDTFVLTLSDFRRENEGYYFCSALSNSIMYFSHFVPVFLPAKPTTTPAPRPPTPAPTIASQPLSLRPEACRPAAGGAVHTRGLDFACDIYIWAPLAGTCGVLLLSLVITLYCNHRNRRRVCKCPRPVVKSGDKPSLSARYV

B1: IAb_Cys-Db3b_CD8 (other)
chain: DVQITQSPSSLSASVGDRVTITCRTSRSISQYLAWYQQKPGKVPKLLIYSGSTLQSGVPSRFSGSGSGTDFTLTISSLQPEDVATYYCQQHNENPLTFGGGTKVEIKGGGSGGGGEVQLVESGGGLVQPGGSLRLSCAASGFNIKDTYIHFVRQAPGKGLEWIGRIDPANDNTLYASKFQGKATISADTSKNTAYLQMNSLRAEDTAVYYCGRGYGYYVFDHWGQGTLVTVSSGGC
notes: Cys-diabody homodimer; also called humanized OKT8 cys-diabody VL-8-VH
On to B1, for which the EC50 with cell-surface human CD8 [1] was 0.02 nM; with cell-surface human CD8 [2], 0.02 nM; with cell-surface human CD8 [3], 0.04 nM; with cell-surface human CD8 [4] it was 0.04 nM; with cell-surface human CD8 [5], 0.04 nM.

As a reminder, the EC50 is the concentration at which the effect is half-maximal. Lower therefore signals an effect from little substance.

(Values after patent US20190382488A1 (IMAGINAB, published 2019).)
